For two substances, stoichiometry N results are on record in paper doi:10.1101/712158.

For one assay, the target named is L19-hIL2 (human). Briefly: SEC.
The target in the next assay is L19-mTNF (murine). Briefly: SEC.

Take L19-hIL2: in the assay with L19-hIL2 (human), the stoichiometry N is 2.
In turn, L19-mTNF gave a stoichiometry N with L19-mTNF (murine) of 3.
